The text below walks through data of patent US20120107301A1.

Assay [1] has as its target recombinant human L-SIGN (human) (UniProt Q9H2X3). The experiment in a line: ELISA on recombinant L-SIGN. Background: An ELISA detects its analyte on a solid surface through an enzyme-linked reagent.
In assay [2] the target is recombinant human DC-SIGN (human) (UniProt Q9NNX6). The experiment in a line: ELISA on recombinant DC-SIGN.
Assay [3] deals with L-SIGN expressed on K562 cells (human) (UniProt Q9H2X3). Kind of assay: flow cytometry on K562/L-SIGN cells. A general note: In flow cytometry, cells or beads pass a laser one at a time.

UniProt Q9NNX6, sequence (Q9NNX6 59-404 limits assumed): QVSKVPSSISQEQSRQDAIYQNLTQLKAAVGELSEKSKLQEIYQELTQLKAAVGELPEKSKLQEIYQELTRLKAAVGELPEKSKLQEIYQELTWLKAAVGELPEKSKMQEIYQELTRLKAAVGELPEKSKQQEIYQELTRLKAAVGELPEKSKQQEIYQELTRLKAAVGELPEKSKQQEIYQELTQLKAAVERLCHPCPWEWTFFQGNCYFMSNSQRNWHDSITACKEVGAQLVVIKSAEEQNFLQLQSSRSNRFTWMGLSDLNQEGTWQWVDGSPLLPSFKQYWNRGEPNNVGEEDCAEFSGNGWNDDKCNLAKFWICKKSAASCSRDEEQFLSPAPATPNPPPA

B1: additional IgG1k antibody clone A10 (antibody, from a related filing, V domains shown)
VH: EVQLQQSGPELEKPGASVKISCKASGYSFTGYNMNWVKQSNGKSLEWIGNIDPYYGDITYNQKFKGKATLTVDKSSSTAYMQLKSLTSEDSAVYYCARTATALYTMDYWGQGTSVTVSS
VL: EIVLTQSPAIMSASLGERVTMTCTASSSVSSSYLHWYQQKPGSSPKLWIYSTSNLASGVPARFSGSGSGTSYSLTISSMEAEDAATYYCHQYHRSPQTFGGGTKLEIK
As to B1, the OD405 in assay [1] was 2.9 OD405; in assay [2], 0.1 OD405. In assay [3], this molecule had a Geo. Mean Flourecence of 21.3.
